Data set [1] has as its target T1, MdWRKY40 (Malus domestica, UniProt A0A7S5ATZ6 1-302). Nature of the data set: EMSA; cold probe weakens binding; EMSA: binding buffer not specified, 24 °C, 30 min; salt and pH not stated. The settings on record: protein: recombinant; tags: His tag, pET-32a(+) fusion; blunt. (In general: A gel shift assay detects complexes by their altered migration in electrophoresis.)

Data set [2] deals with T1, MdWRKY40. As to the kind of experiment: EMSA; text says not bound; the only printed mutant is of W-box 3, so numbering of 2 and 3 is uncertain; EMSA: binding buffer not specified, 24 °C, 30 min; salt and pH not stated. The settings on record: protein: recombinant; tags: His tag, pET-32a(+) fusion; blunt.

T1 sequence (A0A7S5ATZ6 entry or part of it): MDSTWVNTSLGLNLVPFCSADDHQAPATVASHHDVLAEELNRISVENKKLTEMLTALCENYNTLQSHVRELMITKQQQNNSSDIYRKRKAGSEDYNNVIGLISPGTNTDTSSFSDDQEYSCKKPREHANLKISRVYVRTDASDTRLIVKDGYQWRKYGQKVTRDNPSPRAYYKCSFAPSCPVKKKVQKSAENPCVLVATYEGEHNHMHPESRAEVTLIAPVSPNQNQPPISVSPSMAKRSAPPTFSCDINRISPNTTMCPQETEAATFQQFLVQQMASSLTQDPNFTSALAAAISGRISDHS

B1: proMdGLU W-box 2 probe (dsDNA)
DNA 1: ATCACAAATAAAATTGATATTTGACCAACTACATGCCACGATCACA
DNA 2: TGTGATCGTGGCATGTAGTTGGTCAAATATCAATTTTATTTGTGAT
Turning to B1, the binding result with MdWRKY40 [1] was “binds”.

B2: proMdGLU W-box 3 probe (dsDNA)
DNA 1: CTTTCCCCCCTATAAATACTTTGACCACCAACTCCCCAATCCTCCA
DNA 2: TGGAGGATTGGGGAGTTGGTGGTCAAAGTATTTATAGGGGGGAAAG
With B2, the binding result with MdWRKY40 [2] was “no binding”.
